According to US8492329B2, “Bioactive peptides and methods of using same” (Compugen Ltd., priority 2007, dated 2013):
Entries after “also recorded” stand apart in the source; their conditions may differ. No end group written: not given here.

What was measured:
Format in all cases: cell-based
LGR4 = molecular target: T1, LGR4 (Homo sapiens, UniProt Q9BXB1); assay: cAMP accumulation in CHO-K1 cells transiently transfected with LGR4; conditions: 1 uM, pre-treatment with Forskolin, FIG. 3C
T1 construct: expressed in transfected cells; host or cells: CHO-K1 (transient)
Method: [The procedure below names another target; the source says it served here with some conditions changed.] (§1) LGR7 (RXFP1) or LGR8 (RXFP2) were transiently transfected into CHO-K1 cells as follows: Cells (12 million) were plated into T75 flasks on the day preceding transfection. Cells were transfected with a GPCR DNA and Gα16 using a lipid technique according to the manufacturer's recommendation. Cells were transfected for 5 hours, then re-plated into 96-well dishes (60,000 cells per well) and grown overnight. Transfected cells were plated into 24 wells of a 96-well plate. Cells were pre-treated with 0.5 mM IBMX (stimulation buffer) for 10 min at 37° C., then stimulated with either a positive control (Relaxin 2) or a candidate peptide (for Gs functional examination), followed by stimulation or a preincubation with 10 μM forskolin (for Gi functional examination). Following a 20 minutes stimulation by incubation with 1 μM of either positive control or the tested peptides, either with or without forskolin, intracellular cAMP was assayed using the Hit Hunter cAMP kit (DiscoveRx Corporation) according to the manufacturer's recommended protocol. Data was converted to nmol of cAMP by running a standard cAMP curve.

GPR135 (RXFP3) = molecular target: T2, GPR135 (RXFP3) (Homo sapiens, UniProt Q9NSD7); assay: cAMP HTRF assay on Euroscreen RXFP3 recombinant cells; conditions: increasing concentrations, 30 min; FIG. 5
T2 construct: host or cells: CHO-K1 recombinant cell line (Euroscreen)
T2 sequence (Q9NSD7 1-469): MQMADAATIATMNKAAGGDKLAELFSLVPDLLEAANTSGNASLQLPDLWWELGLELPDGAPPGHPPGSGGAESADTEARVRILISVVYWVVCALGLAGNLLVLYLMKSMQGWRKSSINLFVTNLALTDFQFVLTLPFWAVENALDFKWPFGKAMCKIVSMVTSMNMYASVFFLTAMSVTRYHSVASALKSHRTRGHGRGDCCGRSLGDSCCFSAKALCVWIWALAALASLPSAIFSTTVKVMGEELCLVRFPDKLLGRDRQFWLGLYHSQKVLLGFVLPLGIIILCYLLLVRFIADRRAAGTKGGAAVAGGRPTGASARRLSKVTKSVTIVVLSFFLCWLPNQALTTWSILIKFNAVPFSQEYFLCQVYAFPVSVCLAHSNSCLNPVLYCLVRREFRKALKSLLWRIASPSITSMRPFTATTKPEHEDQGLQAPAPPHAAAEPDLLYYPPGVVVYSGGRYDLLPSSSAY
Method: The ability of P59C13V (SEQ ID NO: 6) and H3 Relaxin to activate CHO-K1 cells transfected by GPR135 (RXFP3), which is a non-LGR, Relaxin related receptor, was tested. The assay was performed by Euroscreen. For cAMP concentration analysis, Euroscreen cat. ES-656-A-cells (RXFP3, Euroscreen cat. ES-656-A) grown to mid-log phase in culture media without antibiotics were detached with PBS-EDTA, centrifuged and resuspended in assay buffer at a concentration of […]. The test was performed in 96 well plates. For agonist testing, 12 μl of cells (5×10^3 cells/well) were mixed with 12 μl of agonist Either H3-Relaxin or P59C13V (P59) (SEQ ID NO: 6) at increasing concentrations. The plates were then incubated for 30 min at room temperature. After addition of the lysis buffer, cAMP concentrations were estimated, according to the manufacturer specification, with the HTRF kit from Cis-Bio International (cat no 62AM2PEB).
.Relaxin 3 Fit (Eeuroscreen) was used as a positive control. RXFP3 (GPCR135) transfected cells were challenged with increasing concentrations of Relaxin 3 (H3 Relaxin—as a positive control—[…]) or P59C13V (P59) (SEQ ID NO: 6) (1 nM-3 uM).

LGR6 = molecular target: T3, LGR6 (Homo sapiens, UniProt Q9HBX8); assay: cAMP accumulation in CHO-K1 cells transiently transfected with LGR6; conditions: 1 uM, without Forskolin, FIG. 3A
T3 construct: expressed in transfected cells; host or cells: CHO-K1 (transient)
T3 sequence (Q9HBX8 25-967): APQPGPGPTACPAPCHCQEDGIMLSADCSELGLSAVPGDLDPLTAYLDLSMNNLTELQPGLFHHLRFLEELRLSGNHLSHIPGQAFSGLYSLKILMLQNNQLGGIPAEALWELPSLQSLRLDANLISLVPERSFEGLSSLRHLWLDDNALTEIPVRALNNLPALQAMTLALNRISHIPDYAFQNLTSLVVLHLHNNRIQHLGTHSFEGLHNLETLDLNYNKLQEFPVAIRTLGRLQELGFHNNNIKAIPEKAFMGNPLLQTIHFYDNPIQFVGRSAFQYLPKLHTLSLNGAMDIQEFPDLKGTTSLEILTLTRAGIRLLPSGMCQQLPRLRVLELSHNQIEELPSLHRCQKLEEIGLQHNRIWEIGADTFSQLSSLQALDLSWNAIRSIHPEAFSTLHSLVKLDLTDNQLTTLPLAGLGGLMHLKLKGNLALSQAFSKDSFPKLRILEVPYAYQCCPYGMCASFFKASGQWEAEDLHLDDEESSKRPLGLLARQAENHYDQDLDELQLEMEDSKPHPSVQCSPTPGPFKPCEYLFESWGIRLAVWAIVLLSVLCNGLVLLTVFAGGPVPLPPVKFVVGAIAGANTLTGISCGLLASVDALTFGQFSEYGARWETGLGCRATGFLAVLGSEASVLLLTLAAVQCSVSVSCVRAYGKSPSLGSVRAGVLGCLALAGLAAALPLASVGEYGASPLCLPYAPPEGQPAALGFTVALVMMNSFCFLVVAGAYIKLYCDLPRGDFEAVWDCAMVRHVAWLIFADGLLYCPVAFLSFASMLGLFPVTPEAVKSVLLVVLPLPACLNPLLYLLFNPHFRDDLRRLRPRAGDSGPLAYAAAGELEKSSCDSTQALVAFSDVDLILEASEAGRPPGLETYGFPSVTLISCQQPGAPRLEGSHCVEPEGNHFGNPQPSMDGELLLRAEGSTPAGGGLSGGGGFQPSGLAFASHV
Method: [The procedure below names another target; the source says it served here with some conditions changed.] as §1

| Substance | Gi effect (decrease in cAMP accumulation) (LGR4) | cAMP activation (Gs) of RXFP3 (GPR135 (RXFP3)) | Gs activation (cAMP accumulation) (LGR6) |
| --- | --- | --- | --- |
| GQKGQVGPPGAAVRRAYAAFSV [Peptide P59C13V] | slight yet statistically significant Gi effect; also recorded: slight Gi activation | didn't show any cAMP activation (Gs) |  |
| GQKGQVGPPGAAVRRAYAAFSVGRRAYAAFSV-OH [Peptide P74C13V] | slight yet statistically significant Gi effect; also recorded: slight Gi activation |  | significant increase in cAMP accumulation; also recorded: slight Gs activation |
